Legend:
[1] = Determination of LD50 of Fetuin in Rats; format: in vivo, Sprague-Dawley albino rats
Procedure: The Sprague-Dawley albino rats weighed 170-210 g and were divided into 4 groups, each group including 5 males and 5 females. The control group received 1 ml of saline intraperitoneally for 5 days. The other three groups were given 8.35 mg, 25 mg and 250 mg per kg body wt. of Fetuin 0.1 g/ml. All volumes were made up to 1 ml with sterile pyrogene free saline. The observation period was a least 14 days. If a visible toxic reaction occurs the observation period may be increased until visible signs of toxicity disappear. If any deaths occur during this period, the animal will be immediately autopsied to determine cause of death. During the observation period a careful clinical examination is made each day. These observations include skin and fur, eyes and mucous membranes, respiratory system, circulatory system, autonomic and central nervous system, somatomator activity and behavior patterns. Particular attention will be directed to observation of tremors, convulsions, salivation, diarrhea, lethargy, sleep or coma. Individual weights of the animals are determined shortly before the test substance is administered, and weekly thereafter. Any weight changes are recorded. At the end of the test, the surviving animals are weighed and sacrificed. Prior to sacrifice, blood is drawn from each animal to determine the serum levels of fetuin. After sacrifice, a gross necropsy is done on all animals. Any gross pathological changes are recorded and pertinent tissues preserved in 10% formalin for subsequent histopathology. The observations recorded are tabulated to see if there is any correlation between mortality and/or symptoms and the dose. The LD50 for each sex is determined at 14 days, using the method of Litchfield and Wilcoxon. A dose mortality curve and slope is determined if data justify it. A table of body weight gains or loses is constructed. Necropsy finding is reported.

PC-12 cells [2] = experiment: Neurite outgrowth of PC-12 cells; format: cell-based; conditions: PC-12 cells in 0.5% serum+RPMI; 5uM Fetuin; over 2-3 days
Procedure: PC-12 cells were seeded in 10% heat-inactivated horse serum, 5% fetal bovine serum in RPMI 1640 medium for 1-2 days. The media were changed to 0.5% serum+RPMI overnight and treated with 5uM Fetuin.

PC-12 cells [3] = experiment: Apoptosis of PC-12 cells in the presence of serum; format: cell-based; conditions: PC-12 cells in 10% horse serum+5% FBS; 5 uM Fetuin
Procedure: PC-12 cells were seeded in 10% heat-inactivated horse serum+5% FBS+RPMI 1640 media for 1-2 days and treated with 5 uM Fetuin. […] The apoptosis-inducing activity of Fetuin at high concentration can be applied in therapy of neuroblastoma.

[4] = tested on: transforming growth factor-beta (TGF); experiment: Binding of transforming growth factor-beta
[5] = rats, 5 female, 8.35 mg/kg Fetuin
[6] = rats, 5 female, 8.35 mg/kg Fetuin ip
[7] = rats, 5 female, 25 mg/kg Fetuin
[8] = rats, 5 female, 25 mg/kg Fetuin ip
[9] = rats, 5 female, 250 mg/kg Fetuin
[10] = rats, 5 female, 250 mg/kg Fetuin ip
[11] = rats, 5 male, 8.35 mg/kg Fetuin
[12] = rats, 5 male, 8.35 mg/kg Fetuin ip
[13] = rats, 5 male, 25 mg/kg Fetuin ip
[14] = rats, 5 male, 250 mg/kg Fetuin ip

Substance: Fetuin: Fetal bovine fetuin purified from fetal bovine serum by modified Spiro method; 60 Kd glycoprotein, homologue of alpha 2-HS glycoprotein
- necropsy ([1]; all of the rats, 8.35, 25 and 250 mg per kg): appeared to be normal
- Spleen Wt. (gm) [1, 5]: 0.513 gm
- Thymus Wt. (gm) [1, 5]: 0.481 gm
- Final Wt. (gm) [1, 6]: 203.5 gm
- Initial Wt. (gm) [1, 6]: 170.2 gm
- Wt. Gain Total (gm) [1, 6]: 33.3 gm
- Spleen Wt. (gm) [1, 7]: 0.714 gm
- Thymus Wt. (gm) [1, 7]: 0.485 gm
- Final Wt. (gm) [1, 8]: 218.3 gm
- Initial Wt. (gm) [1, 8]: 190.3 gm
- Wt. Gain Total (gm) [1, 8]: 28.0 gm
- Spleen Wt. (gm) [1, 9]: 0.578 gm
- Thymus Wt. (gm) [1, 9]: 0.619 gm
- Final Wt. (gm) [1, 10]: 201.7 gm
- Initial Wt. (gm) [1, 10]: 164.2 gm
- Wt. Gain Total (gm) [1, 10]: 37.5 gm
- Spleen Wt. (gm) [1, 11]: 0.745 gm
- Thymus Wt. (gm) [1, 11]: 0.599 gm
- Final Wt. (gm) [1, 12]: 283.7 gm
- Initial Wt. (gm) [1, 12]: 233.5 gm
- Wt. Gain Total (gm) [1, 12]: 50.2 gm
- Spleen Wt. (gm) ([1]; rats, 5 male, 25 mg/kg Fetuin): 0.796 gm
- Thymus Wt. (gm) ([1]; rats, 5 male, 25 mg/kg Fetuin): 0.525 gm
- Final Wt. (gm) [1, 13]: 227.5 gm
- Initial Wt. (gm) [1, 13]: 174.5 gm
- Wt. Gain Total (gm) [1, 13]: 53.0 gm
- Spleen Wt. (gm) ([1]; rats, 5 male, 250 mg/kg Fetuin): 0.777 gm
- Thymus Wt. (gm) ([1]; rats, 5 male, 250 mg/kg Fetuin): 0.595 gm
- Final Wt. (gm) [1, 14]: 253.3 gm
- Initial Wt. (gm) [1, 14]: 186.5 gm
- Wt. Gain Total (gm) [1, 14]: 66.8 gm
- mortality ([1]; rats, 8.35, 25 and 250 mg per kg ip, observation at least 14 days): no mortality
- neurite outgrowth (PC-12 cells [2]): neurite outgrowth was observed in many of the cells
- apoptosis-inducing activity (PC-12 cells [3]): apoptosis-inducing activity was observed
- binding of transforming growth factor-beta (TGF) [4]: high affinity

From US20030044400A1, “Composition and method for treating cells” (priority 2001, published 2003)
